Molecular target: T1, Human ROBO2 overexpressed on HEK293 cells (human, UniProt Q9HCK4 22-1378)
T1 construct: also called ROBO2 cells; native ROBO2
T1 sequence: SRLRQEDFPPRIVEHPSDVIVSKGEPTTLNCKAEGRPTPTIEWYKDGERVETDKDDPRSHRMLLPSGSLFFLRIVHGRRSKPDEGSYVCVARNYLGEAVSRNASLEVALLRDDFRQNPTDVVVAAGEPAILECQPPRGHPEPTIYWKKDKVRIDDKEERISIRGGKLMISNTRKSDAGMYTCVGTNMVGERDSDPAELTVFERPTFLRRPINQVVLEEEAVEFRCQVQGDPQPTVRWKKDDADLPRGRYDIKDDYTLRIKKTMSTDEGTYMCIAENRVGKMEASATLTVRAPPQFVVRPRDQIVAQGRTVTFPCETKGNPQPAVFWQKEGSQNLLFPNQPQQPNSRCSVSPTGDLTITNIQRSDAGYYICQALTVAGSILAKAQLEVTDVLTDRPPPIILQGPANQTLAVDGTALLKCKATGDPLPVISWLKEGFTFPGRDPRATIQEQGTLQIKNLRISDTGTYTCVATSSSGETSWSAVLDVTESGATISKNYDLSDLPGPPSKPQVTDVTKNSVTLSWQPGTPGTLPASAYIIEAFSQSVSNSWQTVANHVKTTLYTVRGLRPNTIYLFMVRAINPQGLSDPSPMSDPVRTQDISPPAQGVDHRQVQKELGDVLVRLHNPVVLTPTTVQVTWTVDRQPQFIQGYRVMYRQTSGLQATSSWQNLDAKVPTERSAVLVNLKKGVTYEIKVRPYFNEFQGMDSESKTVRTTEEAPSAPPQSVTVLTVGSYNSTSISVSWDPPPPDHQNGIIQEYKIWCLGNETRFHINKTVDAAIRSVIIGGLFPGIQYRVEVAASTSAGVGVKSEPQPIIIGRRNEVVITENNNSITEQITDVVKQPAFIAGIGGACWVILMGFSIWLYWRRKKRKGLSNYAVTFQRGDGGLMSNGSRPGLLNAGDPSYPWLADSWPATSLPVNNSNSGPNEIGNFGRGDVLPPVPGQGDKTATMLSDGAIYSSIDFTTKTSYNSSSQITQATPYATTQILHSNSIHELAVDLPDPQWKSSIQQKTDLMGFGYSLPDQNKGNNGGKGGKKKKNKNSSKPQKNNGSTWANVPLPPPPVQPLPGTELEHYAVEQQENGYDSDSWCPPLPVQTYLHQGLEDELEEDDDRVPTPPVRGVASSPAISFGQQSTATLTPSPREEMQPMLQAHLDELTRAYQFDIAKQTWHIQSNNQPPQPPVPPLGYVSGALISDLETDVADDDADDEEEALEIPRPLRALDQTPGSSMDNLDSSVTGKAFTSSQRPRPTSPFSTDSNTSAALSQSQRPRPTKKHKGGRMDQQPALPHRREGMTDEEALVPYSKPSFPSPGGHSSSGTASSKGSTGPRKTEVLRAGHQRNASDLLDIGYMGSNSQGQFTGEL
Test: flow cytometry, Geo MFI ROBO2/ROBO1 HEK293 cells, 0.1 µg/ml
Protocol: Binding of the antibodies was detected using a secondary fluorochrome conjugated anti-human IgG F(ab′)₂ antibody and samples were analyzed on a Fortessa cytometer (BD Biosciences). The fold ROBO2 selectivity was calculated as the geometric mean fluorescence intensity (Geo MFI) with ROBO2 cells/Geo MFI with ROBO1 cells. A fold change higher than 3 was considered to be ROBO2 specific (Table 2, Fold Selectivity). Some affinity matured clones had increased ROBO1 reactivity, for example Abcs 55, CTI-R2-10 and CTIR2-13.
HTRF assays were run with 5 nM d2-labeled SLIT2-N and antibodies were added at 1 nM. […] Antibodies derived from chain (Abcs series) or CDR shuffling (CTIR-2 series) were evaluated in 11-point, 5-fold dilution series with a top concentration of 1500 nM, N.T. = not tested; ^cFold selectivity was calculated as Geometric Mean Fluorescent Intensity (Geo MFI) of ROBO2/Geo MFI of ROBO1 binding. […] Outcomes: results are listed in order of assays listed in the table (left to right), I.A. = Improved Affinity

Fold Selectivity for ROBO2/ROBO1: > 100 fold
B1: 93H2 (antibody, human IgG1, kappa, V domains shown)
VH: EVQLVQSGAEVKKPGASVKVSCKASGYTFTGYYMHWVRQAPGQGLEWMGWINPNSGATNFPQKFQGRVTMTRDTSITTAYMDLSRLRSDDTAVYYCARESGDDAFDIWGQGTMVTVSS
VL: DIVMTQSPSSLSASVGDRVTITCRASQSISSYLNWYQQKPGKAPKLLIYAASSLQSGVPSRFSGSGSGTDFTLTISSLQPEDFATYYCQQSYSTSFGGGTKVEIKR
notes: also called parental 93H2; 93H2 mAb
